Biological target: T1, Apaf-1 (human), O14727
T1 chain: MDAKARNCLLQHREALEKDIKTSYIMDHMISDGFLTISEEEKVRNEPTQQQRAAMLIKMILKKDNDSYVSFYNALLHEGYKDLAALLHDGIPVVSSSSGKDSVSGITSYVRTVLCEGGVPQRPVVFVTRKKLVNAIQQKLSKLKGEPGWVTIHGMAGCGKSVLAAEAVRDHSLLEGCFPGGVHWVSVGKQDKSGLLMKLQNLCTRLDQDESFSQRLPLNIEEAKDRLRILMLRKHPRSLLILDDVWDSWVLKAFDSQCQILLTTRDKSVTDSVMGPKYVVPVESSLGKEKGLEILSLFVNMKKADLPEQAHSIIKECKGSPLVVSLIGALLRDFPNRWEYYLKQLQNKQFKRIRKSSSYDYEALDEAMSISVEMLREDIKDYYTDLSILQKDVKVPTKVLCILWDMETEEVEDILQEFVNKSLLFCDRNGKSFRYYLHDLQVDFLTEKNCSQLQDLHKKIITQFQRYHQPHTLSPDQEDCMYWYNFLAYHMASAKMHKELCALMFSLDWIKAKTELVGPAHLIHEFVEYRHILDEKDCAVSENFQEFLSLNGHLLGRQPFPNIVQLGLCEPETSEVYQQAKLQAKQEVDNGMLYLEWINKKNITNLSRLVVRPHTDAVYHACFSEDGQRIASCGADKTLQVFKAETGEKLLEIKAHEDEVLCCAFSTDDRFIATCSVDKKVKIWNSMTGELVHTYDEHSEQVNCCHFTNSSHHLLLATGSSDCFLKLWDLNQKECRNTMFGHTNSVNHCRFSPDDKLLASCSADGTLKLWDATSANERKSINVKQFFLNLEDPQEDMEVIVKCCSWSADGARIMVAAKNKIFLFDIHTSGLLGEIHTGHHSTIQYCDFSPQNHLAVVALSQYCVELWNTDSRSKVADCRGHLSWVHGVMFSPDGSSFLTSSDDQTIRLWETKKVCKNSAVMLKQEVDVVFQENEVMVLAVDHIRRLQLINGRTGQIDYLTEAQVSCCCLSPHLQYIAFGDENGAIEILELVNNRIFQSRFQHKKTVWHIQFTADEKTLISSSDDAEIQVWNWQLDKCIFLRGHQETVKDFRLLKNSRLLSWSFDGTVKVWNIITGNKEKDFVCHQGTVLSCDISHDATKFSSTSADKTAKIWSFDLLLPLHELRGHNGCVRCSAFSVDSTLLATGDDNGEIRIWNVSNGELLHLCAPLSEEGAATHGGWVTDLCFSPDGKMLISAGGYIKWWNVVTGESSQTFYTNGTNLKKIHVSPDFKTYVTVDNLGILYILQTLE
Experiment: cryo-EM structure
Conditions: remark: other sources report otherwise

B1: Apaf-1, O14727 1-1248 (natural protein)
chain: MDAKARNCLLQHREALEKDIKTSYIMDHMISDGFLTISEEEKVRNEPTQQQRAAMLIKMILKKDNDSYVSFYNALLHEGYKDLAALLHDGIPVVSSSSGKDSVSGITSYVRTVLCEGGVPQRPVVFVTRKKLVNAIQQKLSKLKGEPGWVTIHGMAGCGKSVLAAEAVRDHSLLEGCFPGGVHWVSVGKQDKSGLLMKLQNLCTRLDQDESFSQRLPLNIEEAKDRLRILMLRKHPRSLLILDDVWDSWVLKAFDSQCQILLTTRDKSVTDSVMGPKYVVPVESSLGKEKGLEILSLFVNMKKADLPEQAHSIIKECKGSPLVVSLIGALLRDFPNRWEYYLKQLQNKQFKRIRKSSSYDYEALDEAMSISVEMLREDIKDYYTDLSILQKDVKVPTKVLCILWDMETEEVEDILQEFVNKSLLFCDRNGKSFRYYLHDLQVDFLTEKNCSQLQDLHKKIITQFQRYHQPHTLSPDQEDCMYWYNFLAYHMASAKMHKELCALMFSLDWIKAKTELVGPAHLIHEFVEYRHILDEKDCAVSENFQEFLSLNGHLLGRQPFPNIVQLGLCEPETSEVYQQAKLQAKQEVDNGMLYLEWINKKNITNLSRLVVRPHTDAVYHACFSEDGQRIASCGADKTLQVFKAETGEKLLEIKAHEDEVLCCAFSTDDRFIATCSVDKKVKIWNSMTGELVHTYDEHSEQVNCCHFTNSSHHLLLATGSSDCFLKLWDLNQKECRNTMFGHTNSVNHCRFSPDDKLLASCSADGTLKLWDATSANERKSINVKQFFLNLEDPQEDMEVIVKCCSWSADGARIMVAAKNKIFLFDIHTSGLLGEIHTGHHSTIQYCDFSPQNHLAVVALSQYCVELWNTDSRSKVADCRGHLSWVHGVMFSPDGSSFLTSSDDQTIRLWETKKVCKNSAVMLKQEVDVVFQENEVMVLAVDHIRRLQLINGRTGQIDYLTEAQVSCCCLSPHLQYIAFGDENGAIEILELVNNRIFQSRFQHKKTVWHIQFTADEKTLISSSDDAEIQVWNWQLDKCIFLRGHQETVKDFRLLKNSRLLSWSFDGTVKVWNIITGNKEKDFVCHQGTVLSCDISHDATKFSSTSADKTAKIWSFDLLLPLHELRGHNGCVRCSAFSVDSTLLATGDDNGEIRIWNVSNGELLHLCAPLSEEGAATHGGWVTDLCFSPDGKMLISAGGYIKWWNVVTGESSQTFYTNGTNLKKIHVSPDFKTYVTVDNLGILYILQTLE
- stoichiometry N: 7

— PMC2874686
